Experimental data from article PMC3791466, “Structure of a helicase–helicase loader complex reveals insights into the mechanism of bacterial primosome assembly” (Nature Communications, 2013).
Each block holds one binder with its values, some of them ahead of it.

Assays:
[1] = biological target: T1, Bacillus stearothermophilus helicase DnaB (B. stearothermophilus, UniProt Q9X4C9 1-454); test: crystal structure; another crystal form obtained under different conditions, content shown by molecular replacement; conditions: both partners purified
T1 construct: replicative DNA helicase DnaB of Bacillus stearothermophilus; N-terminal domain, linker and C-terminal RecA-fold domain; both the NTD and the CTD are in the structure; also called BstDnaB; hexameric helicase ring
T1 sequence: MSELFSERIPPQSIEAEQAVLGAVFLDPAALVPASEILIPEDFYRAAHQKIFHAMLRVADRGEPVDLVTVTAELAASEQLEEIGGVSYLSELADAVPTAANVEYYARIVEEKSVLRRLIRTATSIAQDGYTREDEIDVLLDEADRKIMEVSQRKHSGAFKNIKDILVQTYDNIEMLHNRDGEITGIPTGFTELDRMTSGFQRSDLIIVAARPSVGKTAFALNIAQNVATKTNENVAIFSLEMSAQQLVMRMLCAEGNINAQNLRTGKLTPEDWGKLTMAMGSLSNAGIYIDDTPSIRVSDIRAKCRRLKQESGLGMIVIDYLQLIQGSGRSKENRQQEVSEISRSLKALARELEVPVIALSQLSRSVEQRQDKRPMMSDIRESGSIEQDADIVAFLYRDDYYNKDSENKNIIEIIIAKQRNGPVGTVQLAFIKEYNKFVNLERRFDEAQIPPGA

[2] = biological target: T1, Bacillus stearothermophilus helicase …; test: crystal structure; 570-kDa complex of BstDnaB, BsuDnaI and HBD of BstDnaG, molecular replacement, 7.5 Å; proteins in the crystals confirmed by tryptic digestion and mass spectrometry; conditions: both partners purified
[3] = biological target: T2, Bacillus subtilis helicase loader protein DnaI (B. subtilis), P06567; test: as above; conditions: remark: other sources report otherwise
T2 chain: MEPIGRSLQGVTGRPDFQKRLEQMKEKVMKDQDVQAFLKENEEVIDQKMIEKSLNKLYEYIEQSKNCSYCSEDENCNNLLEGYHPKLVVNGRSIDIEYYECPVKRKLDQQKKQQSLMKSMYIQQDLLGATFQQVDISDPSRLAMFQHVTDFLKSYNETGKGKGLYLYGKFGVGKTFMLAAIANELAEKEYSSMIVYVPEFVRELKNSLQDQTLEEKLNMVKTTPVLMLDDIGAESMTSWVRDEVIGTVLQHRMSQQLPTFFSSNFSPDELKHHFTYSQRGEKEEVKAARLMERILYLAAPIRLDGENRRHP

[4] = biological target: T2, Bacillus subtilis helicase loader …; test: SEC-MALS; gel filtration and multiple-angle light scattering of BsuDnaI alone at 10 mg/ml; conditions: remark: other sources report otherwise

stoichiometry N [1]: 3 HBDs per DnaB hexamer
stoichiometry N [2]: 3 HBDs per helicase hexamer
B1: helicase-binding domain (HBD) of Bacillus stearothermophilus primase DnaG (domain or fragment, B. stearothermophilus)
chain: KLLPAFQNAERLLLAHMMRSRDVALVVQERIGGRFNIEEHRALAAYIYAFYEEGHEADPGALISRIPGELQPLASDVSLLLIADDVSEQELEDYIRHVLNRPKWLMLKVKEQEKTEAERRKDFLTAARIAKEMIEMKKMLSSS
notes: also called HBD of BstDnaG; HBD of primase DnaG

stoichiometry N [3]: 6
percent monomer at 10 mg/ml [4]: 93%
stoichiometry N [4]: 2
stoichiometry N [2]: 3 loader dimers per helicase hexamer
B2: Bacillus subtilis helicase loader protein DnaI (natural protein, B. subtilis)
chain: T2 chain
notes: primosomal helicase loader DnaI of Bacillus subtilis 168, cloned by PCR from genomic DNA into NcoI-XhoI of pET21d(+); the reverse primer has no stop codon before XhoI, so a C-terminal His tag of the vector is surmised; No cleavage of the tag is described; also called BsuDnaI
